Laboratory results published in the Human Domainome abundance scans (Beltran et al. 2025).

B1: Cullin-9, residues 2234 to 2275; numbered along this chain, Q8IWT3 (parent)
chain: KRCPSCQAPIEKNEGCLHMTCAKCNHGFCWRCLKSWKPNHKD
B2: POU domain, class 4, transcription factor 3, residues 185 to 256; numbered along this chain, Q15319 (parent)
chain: RELEAFAERFKQRRIKLGVTQADVGAALANLKIPGVGSLSQSTICRFESLTLSHNNMIALKPVLQAWLEEAE

Variants of: B1
Test: abundance fitness (aPCA) (normalised: wild type 0, dead -1); higher = more abundant; growth selection in yeast, the domain comes from the species named
Settings: Homo sapiens

Abundance fitness, by site and new letter:
L33: N -0.432, P -0.464, Q -0.125, R -0.418, S -0.623, T -0.29, V -0.414, W -0.48, Y -0.512
K34: A -0.431, C -0.341, D -0.376, E 0.045, F -0.378, G -0.194, H -0.252, I -0.539, L -0.639, M -0.374, N -0.579, P -0.363, Q -0.128, S -0.18, T -0.313, W -0.765
S35: A 0.049, C -0.195, D 0.003, E 0.17, F 0.187, H -0.373, I -0.438, K -0.155, L 0.078, M 0.037, N -0.092, P 0.446, Q 0.068, R -0.356, T 0.044, V -0.132, W -0.23, Y -0.463
W36: A 0.029, C -0.391, D 0.255, F -0.194, G -0.026, H -0.015, K 0.13, L 0.205, N -0.355, P 0.067, Q 0.082, R -0.25, S 0.118, T 0.147, V 0.304, Y -0.17
K37: C 0.057, D 0.323, E 0.219, F -0.193, G 0.125, I -0.039, L -0.143, M -0.261, P -0.056, Q 0.121, R -0.156, S 0.234, T 0.117, V 0.078, W -0.168, Y -0.059
P38: A -0.114, C -0.695, D -0.553, E 0.184, F 0.042, H -0.867, K -0.379, L -0.178, M -0.364, Q -0.163, R -0.383, S -0.26, T -0.204, V -0.212
N39: A 0.017, C -0.093, D 0.244, F 0.269, G 0.203, H -0.377, K 0.045, L 0.001, M -0.14, Q -0.152, R -0.071, S 0.001, T 0.16, V -0.095, W -0.176, Y -0.384
H40: A 0.05, C -0.24, D 0.111, E 0.182, F -0.089, G -0.102, K -0.319, M 0.13, P -0.091, Q -0.123, R -0.283, S 0.066, T -0.359, V 0.006, W -0.427, Y -0.451
K41: A 0.047, C 0.578, E 0.281, H 0.256, L -0.295, M -0.373, N -0.132, P 0.318, R -0.128, S -0.038, T -0.277, V 0.255, W -0.646
D42: A -0.117, C 0.214, E -0.09, F -0.729, G -0.21, K -0.487, L -0.444, M -0.77, P -0.158, R -0.951, S -0.387, T -0.073, V -0.359, W -0.692

Variants of: B2
Test: as above
Settings: Homo sapiens

Abundance fitness, by site and new letter:
R1: A -0.282, C -0.229, D -0.419, E -0.093, F -0.142, G 0.002, K -0.226, L -0.125, M -0.08, N -0.153, S -0.109, T -0.133, W -0.164
E2: D 0.075, H -0.221, I -0.664, K -0.121, L -0.421, M -0.437, N -0.207, P -0.345, Y -0.686
L3: E -0.395, I 0.065, K -0.482, M -0.261, N -0.605, Q -0.227, S -0.359, T -0.109, V 0.074, Y -0.192
E4: C -0.17, F 0.03, G -0.197, I 0.113, K -0.125, L -0.214, M 0.01, N -0.11, R 0.041, W -0.222, Y -0.125
A5: C -0.552, E -0.155, F -0.605, G -0.033, L 0.019, M 0.109, Q 0.08, R -0.121, S -0.002, T -0.002, V -0.051, W -0.379
F6: C -0.731, D -0.293, K -1.03, L -0.221, M -0.327, S -0.338, V -0.701, Y -0.118
A7: C -0.124, D -0.953, E -0.893, F -0.649, G -0.646, H -0.707, I -0.083, K -0.398, L -0.581, M -0.784, N -0.927, P -0.579, Q -0.689, R -0.695, T -0.235, V 0.039, W -0.817, Y -0.725
E8: A 0.022, C -0.212, D -0.05, F -0.005, G -0.098, I 0, M -0.003, N -0.434, P -0.698, Q 0.073, S -0.033, T 0.053, W -0.2, Y -0.236
R9: A -0.045, C -0.141, E 0.033, F -0.33, G -0.198, H -0.018, I -0.192, K 0.022, M 0.111, N -0.016, P -0.642, S 0.007, T 0.016, W -0.146, Y -0.025
F10: G -1.03, I -0.813, L -0.697, M -0.881, R -0.653, V -0.765, W -0.287
K11: E -0.945, F -0.478, H -0.1, I -0.123, L -0.449, M -0.125, N -0.88, P -0.751, Q -0.136, S -0.208, T -0.276, V -0.186, Y -0.474
Q12: A 0.006, D 0.012, E 0.07, G -0.377, I -0.172, K -0.115, L -0.066, M -0.034, N 0.189, P -1.02, R -0.187, S -0.083, T -0.113, Y 0.121
R13: A -0.01, C -0.265, D -0.234, E -0.075, F -0.247, H 0.151, I 0.05, K -0.019, L -0.139, M -0.094, N -0.119, P -0.938, Q -0.069, S 0.08, T 0.108, V -0.018, W -0.297, Y -0.133
R14: A -1.1, C -0.887, D -0.454, E -0.95, F -1.11, G -0.951, I -0.656, L -0.805, M -0.945, N -1.02, Q -0.45, S -1.06, T -1.15, V -0.759
I15: A -0.093, C -0.223, D -0.229, E -0.067, F -0.32, G -0.423, H -0.37, K -0.052, L -0.088, M 0.024
